For experiment [1], the target named is GPC3 on the surface of hepatic cancer cell lines (SK-Hep1-GPC3 transfectant, HepG2, Huh7, Hep3B, SNU398) (human) (UniProt P51654). Put plainly: FACS, SK-Hep1-GPC3 #9 cells; lower left panel.
Experiment [2] shares this target. Put plainly: FACS, HepG2 cells; lower right panel. A general note: In flow cytometry, cells or beads pass a laser one at a time.
The target is the same in experiment [3]. Description: FACS, SK-Hep1-GPC3 #9 cells; upper right panel.
Experiment [4] shares this target. Put plainly: FACS, SK-Hep1-GPC3 cells; lower right panel.

Take hIgG (antibody): the Mean, FL2-H worked out at 5.79 in experiment [1], 2.87 in experiment [2], 4.76 in experiment [3] and 3.49 in experiment [4].

The record behind these values is patent US20180346592A1.
